# Source: the Immune Epitope Database (IEDB)
# Legend:
# HLA-A*01:01 = assay: IEDB peptide-MHC binding, purified MHC/direct/fluorescence; filed as Kd, often an IC50 or EC50 that approximates it; ≥ and ≤ were set here for values at or beyond the usual limits of such assays
# HLA-A*02:01 [1] = assay: as above
# HLA-A*03:01 [2] = assay: as above
# HLA-A*11:01 = assay: as above
# HLA-A*29:02 = assay: as above
# HLA-A*31:01 = assay: as above
# HLA-A*69:01 = assay: as above
# HLA-B*07:02 = assay: as above
# HLA-B*08:01 = assay: as above
# HLA-B*18:01 = assay: as above
# HLA-B*27:05 = assay: as above
# HLA-B*40:01 = assay: as above
# HLA-B*44:02 = assay: as above
# HLA-B*46:01 [3] = assay: as above
# HLA-B*48:01 = assay: as above
# HLA-B*57:01 [4] = assay: as above
# HLA-B*58:01 = assay: as above
# HLA-B*51:01 [5] = assay: as above
# HLA-A*02:01 [6] = assay: IEDB peptide-MHC binding, purified MHC/competitive/fluorescence; filed as Kd, often an IC50 or EC50 that approximates it; ≥ and ≤ were set here for values at or beyond the usual limits of such assays
# HLA-A*02:03 = assay: as above; details: source organism: Vibrio vulnificus YJ016
# HLA-A*02:12 [7] = assay: as above; details: source organism: Vibrio vulnificus YJ016
# HLA-A*02:16 = assay: as above
# HLA-A*02:19 = assay: as above; details: source organism: Vibrio vulnificus YJ016
# HLA-A*03:01 [8] = assay: as above; details: source organism: Vibrio vulnificus YJ016
# HLA-A*26:01 [9] = assay: as above
# HLA-A*68:02 [10] = assay: as above; details: source organism: Vibrio vulnificus YJ016
# HLA-B*15:01 [11] = assay: as above; details: source organism: Vibrio vulnificus YJ016
# HLA-B*27:03 = assay: as above
# HLA-B*39:01 [12] = assay: as above; details: source organism: Vibrio vulnificus YJ016
# HLA-B*46:01 [13] = assay: as above; details: source organism: Vibrio vulnificus YJ016
# HLA-B*57:01 [14] = assay: as above; details: source organism: Vibrio vulnificus YJ016
# HLA-A*02:12 [15] = assay: IEDB peptide-MHC binding, purified MHC/direct/fluorescence; filed as Kd, often an IC50 or EC50 that approximates it; ≥ and ≤ were set here for values at or beyond the usual limits of such assays; details: source organism: Orthohantavirus andesense
# HLA-A*68:02 [16] = assay: as above
# HLA-B*15:01 [17] = assay: as above
# HLA-B*39:01 [18] = assay: as above
# HLA-B*15:17 [19] = assay: IEDB peptide-MHC binding, purified MHC/competitive/fluorescence; filed as Kd, often an IC50 or EC50 that approximates it; ≥ and ≤ were set here for values at or beyond the usual limits of such assays; details: source organism: Orthohantavirus andesense
# HLA-B*51:01 [20] = assay: as above; details: source organism: Orthohantavirus andesense
# HLA-B*15:17 [21] = assay: IEDB peptide-MHC binding, purified MHC/direct/fluorescence; filed as Kd, often an IC50 or EC50 that approximates it; ≥ and ≤ were set here for values at or beyond the usual limits of such assays
# HLA-C*15:02 = assay: as above
# HLA-A*26:01 [22] = assay: as above; details: source organism: Brucella abortus
# [23] = source organism: Mammarenavirus juninense
# [24] = source organism: Orthohantavirus hantanense
# [25] = source organism: Vibrio vulnificus YJ016
# [26] = source organism: Orthohantavirus andesense
# [27] = source organism: dengue virus type 3
# [28] = source organism: Yersinia pestis
# [29] = source organism: Entamoeba histolytica HM-1:IMSS
# [30] = source organism: Mammarenavirus machupoense
# [31] = source organism: Escherichia coli O157:H7
# [32] = source organism: Brucella abortus
# [33] = source organism: Brucella melitensis
sequence,measurement,setting,value
QVKRREGMF,Kd,HLA-A*01:01; [23],≥ 20 µM
same,Kd,HLA-A*02:01 [1]; [23],≥ 20 µM
same,Kd,HLA-A*03:01 [2]; [23],≥ 20 µM
same,Kd,HLA-A*11:01; [23],≥ 20 µM
same,Kd,HLA-A*29:02; [23],≥ 20 µM
same,Kd,HLA-A*31:01; [23],≥ 20 µM
same,Kd,HLA-A*69:01; [23],≥ 20 µM
same,Kd,HLA-B*07:02; [23],≥ 20 µM
same,Kd,HLA-B*08:01; [23],1.55 µM
same,Kd,HLA-B*18:01; [23],≥ 20 µM
same,Kd,HLA-B*27:05; [23],≥ 20 µM
same,Kd,HLA-B*40:01; [23],≥ 20 µM
same,Kd,HLA-B*44:02; [23],≥ 20 µM
same,Kd,HLA-B*46:01 [3]; [23],≥ 20 µM
same,Kd,HLA-B*48:01; [23],≥ 20 µM
same,Kd,HLA-B*57:01 [4]; [23],≥ 20 µM
same,Kd,HLA-B*58:01; [23],≥ 20 µM
AVRTDGSNI,Kd,HLA-B*07:02; [24],0.261 µM
same,Kd,HLA-B*51:01 [5]; [24],≥ 20 µM
IALPVAWLF,Kd,HLA-A*02:01 [6]; [25],≥ 20 µM
same,Kd,HLA-A*02:03,≥ 20 µM
same,Kd,HLA-A*02:12 [7],≥ 20 µM
same,Kd,HLA-A*02:16; [25],≥ 20 µM
same,Kd,HLA-A*02:19,≥ 20 µM
same,Kd,HLA-A*03:01 [8],≥ 20 µM
same,Kd,HLA-A*26:01 [9]; [25],≥ 20 µM
same,Kd,HLA-A*68:02 [10],≥ 20 µM
same,Kd,HLA-B*15:01 [11],≥ 20 µM
same,Kd,HLA-B*27:03; [25],≥ 20 µM
same,Kd,HLA-B*39:01 [12],≥ 20 µM
same,Kd,HLA-B*46:01 [13],≥ 20 µM
same,Kd,HLA-B*57:01 [14],0.0624 µM
AYDHGNVIL,Kd,HLA-A*01:01; [26],≥ 20 µM
same,Kd,HLA-A*02:01 [1]; [26],≥ 20 µM
same,Kd,HLA-A*02:12 [15],≥ 20 µM
same,Kd,HLA-A*03:01 [2]; [26],≥ 20 µM
same,Kd,HLA-A*11:01; [26],≥ 20 µM
same,Kd,HLA-A*29:02; [26],≥ 20 µM
same,Kd,HLA-A*31:01; [26],≥ 20 µM
same,Kd,HLA-A*68:02 [16]; [26],≥ 20 µM
same,Kd,HLA-A*69:01; [26],≥ 20 µM
same,Kd,HLA-B*07:02; [26],≥ 20 µM
same,Kd,HLA-B*15:01 [17]; [26],≥ 20 µM
same,Kd,HLA-B*18:01; [26],≥ 20 µM
same,Kd,HLA-B*27:05; [26],≥ 20 µM
same,Kd,HLA-B*39:01 [18]; [26],0.0657 µM
same,Kd,HLA-B*40:01; [26],≥ 20 µM
same,Kd,HLA-B*44:02; [26],≥ 20 µM
same,Kd,HLA-B*46:01 [3]; [26],≥ 20 µM
same,Kd,HLA-B*48:01; [26],≥ 20 µM
same,Kd,HLA-B*57:01 [4]; [26],≥ 20 µM
same,Kd,HLA-B*58:01; [26],≥ 20 µM
same,Kd,HLA-A*26:01 [9]; [26],≥ 20 µM
same,Kd,HLA-B*15:17 [19],≥ 20 µM
same,Kd,HLA-B*27:03; [26],≥ 20 µM
same,Kd,HLA-B*51:01 [20],≥ 20 µM
ICSAVPVHW,Kd,HLA-B*15:17 [21]; [27],0.373 µM
same,Kd,HLA-B*57:01 [4]; [27],0.417 µM
KIFLHFSIL,Kd,HLA-C*15:02; source organism: Rickettsia sibirica 246,0.919 µM
WANDFNHHY,Kd,HLA-B*07:02; [28],≥ 20 µM
same,Kd,HLA-B*15:01 [17]; source organism: Yersinia pestis CA88-4125,0.029 µM
same,Kd,HLA-B*51:01 [5]; [28],≥ 20 µM
SLKERIDML,Kd,HLA-A*02:01 [6]; [29],0.0013 µM
same,Kd,HLA-A*02:16; [29],0.0028 µM
GLYEFTILV,Kd,HLA-C*15:02; source organism: Mycobacterium tuberculosis C,≥ 20 µM
FHEFLSSKL,Kd,HLA-A*01:01; [30],≥ 20 µM
same,Kd,HLA-A*02:01 [1]; [30],≥ 20 µM
same,Kd,HLA-A*03:01 [2]; [30],≥ 20 µM
same,Kd,HLA-A*11:01; [30],≥ 20 µM
same,Kd,HLA-A*31:01; [30],≥ 20 µM
same,Kd,HLA-B*07:02; [30],≥ 20 µM
same,Kd,HLA-B*15:01 [17]; [30],≥ 20 µM
same,Kd,HLA-B*27:05; [30],≥ 20 µM
same,Kd,HLA-B*39:01 [18]; [30],0.0731 µM
same,Kd,HLA-B*44:02; [30],≥ 20 µM
same,Kd,HLA-B*46:01 [3]; [30],≥ 20 µM
same,Kd,HLA-B*48:01; [30],≥ 20 µM
same,Kd,HLA-B*57:01 [4]; [30],≥ 20 µM
same,Kd,HLA-B*58:01; [30],≥ 20 µM
WLSVIAFGK,Kd,HLA-A*01:01; [31],≥ 20 µM
same,Kd,HLA-A*02:01 [1]; [31],≥ 20 µM
same,Kd,HLA-A*03:01 [2]; [31],1.63 µM
same,Kd,HLA-A*11:01; [31],2.24 µM
same,Kd,HLA-A*31:01; [31],≥ 20 µM
same,Kd,HLA-A*68:02 [16]; [31],≥ 20 µM
same,Kd,HLA-B*07:02; [31],≥ 20 µM
same,Kd,HLA-B*15:01 [17]; [31],≥ 20 µM
same,Kd,HLA-B*15:17 [21]; [31],≥ 20 µM
same,Kd,HLA-B*18:01; [31],≥ 20 µM
same,Kd,HLA-B*27:05; [31],≥ 20 µM
same,Kd,HLA-B*40:01; [31],≥ 20 µM
same,Kd,HLA-B*46:01 [3]; [31],≥ 20 µM
same,Kd,HLA-B*48:01; [31],≥ 20 µM
same,Kd,HLA-B*57:01 [4]; [31],≥ 20 µM
same,Kd,HLA-B*58:01; [31],≥ 20 µM
KMIDGIGRF,Kd,HLA-B*15:01 [17]; source organism: H1N1 swine influenza virus (A/swine/Korea/S10/2004(H1N1)),0.194 µM
same,Kd,HLA-C*15:02; source organism: Influenza A virus (A/81/HO),≥ 20 µM
TVADVRHCL,Kd,HLA-C*15:02; source organism: Vaccinia virus Copenhagen,0.495 µM
GRDHVRVTL,Kd,HLA-A*01:01; [32],≥ 20 µM
same,Kd,HLA-A*02:01 [1]; [32],≥ 20 µM
same,Kd,HLA-A*03:01 [2]; [32],≥ 20 µM
same,Kd,HLA-A*11:01; [32],≥ 20 µM
same,Kd,HLA-A*26:01 [22],≥ 20 µM
same,Kd,HLA-A*31:01; [32],≥ 20 µM
same,Kd,HLA-A*69:01; [32],≥ 20 µM
same,Kd,HLA-B*07:02; [32],≥ 20 µM
same,Kd,HLA-B*08:01; [33],2.56 µM
same,Kd,HLA-B*15:01 [17]; [32],≥ 20 µM
same,Kd,HLA-B*27:05; [33],0.315 µM
same,Kd,HLA-B*39:01 [18]; source organism: Brucella suis 1330,0.053 µM
same,Kd,HLA-B*40:01; [33],≥ 5 µM
same,Kd,HLA-B*44:02; [32],≥ 20 µM
same,Kd,HLA-B*58:01; [32],≥ 20 µM
